B1: D-domain SEQ ID NO: 279 (designed binder)
chain: MGSWLSFKHHLALIKWYLEALGGSEAELASFEAWIALFEHQLQQYKGKGNPEVEALRKEAAAIRDELQAYRHN
B2: D-domain SEQ ID NO: 296 (designed binder)
chain: B1 chain with L5F, L13V, Y17N, A33E, W34Q, L37E, H40S, Q41V, Q44A
B3: D-domain SEQ ID NO: 281 (designed binder)
chain: MGSWIEFKYKLAIIKFYLEALGGSEAELAHFEHWIADFEFVLQQYKGKGNPEVEALRKEAAAIRDELQAYRHN
B4: D-domain SEQ ID NO: 287 (designed binder)
chain: B3 chain with I5V, E6N, F16Y, Y17M, H30F, H33D, D37E, F40R, V41T
B5: D-domain SEQ ID NO: 289 (designed binder)
chain: MGSWTNFKYKLAVIKFMLEALGGSEAELAFFEDWIAGFEIDLQNYKGKGNPEVEALRKEAAAIRDELQAYRHN
B6: D-domain SEQ ID NO: 288 (designed binder)
chain: B5 chain with T5S, K10R, F16Y, G37D, I40L, D41H, N44V
B7: D-domain SEQ ID NO: 304 (designed binder)
chain: MGSWSYFKYGLATIKEKLEALGGSEAELADFETWIAMFEKQLQEYKGKGNPEVEALRKEAAAIRDELQAYRHN
B8: D-domain SEQ ID NO: 308 (designed binder)
chain: B7 chain with S5V, T13V, M37E, K40F, Q41G, E44Q
B9: D-domain SEQ ID NO: 299 (designed binder)
chain: B7 chain with Y9F, T13H, E16L, K17R, T33Q, M37S, K40E, E44T
B10: D-domain SEQ ID NO: 312 (designed binder)
chain: B7 chain with S5T, Y9F, T13H, E16D, K17S, T33Q, K40Q, Q41D, E44V
B11: D-domain SEQ ID NO: 298 (designed binder)
chain: B7 chain with T13I, E16I, K17R, T33R, M37A, K40H, Q41D, E44Y
B12: D-domain SEQ ID NO: 311 (designed binder)
chain: B7 chain with S5D, T13L, E16I, T33V, M37Q, K40M, Q41A, E44V
B13: D-domain SEQ ID NO: 300 (designed binder)
chain: B7 chain with Y9W, T13H, E16L, K17R, T33F, M37E, K40G, Q41L, E44D
B14: D-domain SEQ ID NO: 310 (designed binder)
chain: B7 chain with S5T, T13L, E16Y, K17R, T33E, M37Q, K40V, Q41S, E44H
B15: D-domain SEQ ID NO: 307 (designed binder)
chain: B7 chain with S5V, Y9H, T13V, E16M, K17R, M37Q, K40M, Q41T
B16: D-domain SEQ ID NO: 303 (designed binder)
chain: B7 chain with S5E, E16M, K17H, T33H, M37H, K40H, E44M
B17: D-domain SEQ ID NO: 309 (designed binder)
chain: B7 chain with S5Y, T13V, E16G, M37K, K40N, Q41H, E44S
B18: D-domain SEQ ID NO: 305 (designed binder)
chain: B7 chain with S5H, Y9N, T13I, T33I, K40M, Q41E
B19: D-domain SEQ ID NO: 302 (designed binder)
chain: B7 chain with S5G, E16H, K17R, T33L, M37K, K40E, E44V
B20: D-domain SEQ ID NO: 301 (designed binder)
chain: B7 chain with S5I, T13H, E16T, K17R, T33Q, M37E, Q41M, E44D
B21: D-domain SEQ ID NO: 306 (designed binder)
chain: B7 chain with S5Q, T13I, E16I, T33A, M37T, E44H
B22: D-domain SEQ ID NO: 264 (designed binder)
chain: MGSWAHFKYRLAIIKFWLEALGGSEAELANFEEYIAEFESTLQVYKGKGNPEVEALRKEAAAIRDELQAYRHN
B23: D-domain SEQ ID NO: 282 (designed binder)
chain: MGSWQNFKYHLAMIKWYLEALGGSEAELANFEEFIAQFEINLQHYKGKGNPEVEALRKEAAAIRDELQAYRHN
B24: D-domain SEQ ID NO: 283 (designed binder)
chain: B23 chain with Q5Y, M13I, Y17W, N30D, E33H, F34Y, Q37D, I40R, H44E
B25: D-domain SEQ ID NO: 284 (designed binder)
chain: MGSWYQFKYHLAIIKWYLEALGGSEAELAGFENYIATFEQELQQYKGKGNPEVEALRKEAAAIRDELQAYRHN
B26: D-domain SEQ ID NO: 286 (designed binder)
chain: B25 chain with Y5V, Q6G, Y9A, N33I, Y34F, T37D, Q40A, E41L, Q44M
B27: D-domain SEQ ID NO: 292 (designed binder)
chain: B5 chain with T5F, N6A, Y9H, K10R, F16Y, D33H, G37Q, I40H, N44Q
B28: D-domain SEQ ID NO: 294 (designed binder)
chain: MGSWYKFKHKLAVIKYMLEALGGSEAELAWFEEWIAEFEVTLQDYKGKGNPEVEALRKEAAAIRDELQAYRHN
B29: D-domain SEQ ID NO: 293 (designed binder)
chain: B28 chain with K6E, K10R, W30F, E33N, E37Q, V40H, T41E, D44T
B30: D-domain SEQ ID NO: 297 (designed binder)
chain: MGSWGNFKYRLAIIKFHLEALGSSEAELATFEAWIANFESMLQNYKGKGNPEVEALRKEAAAIRDELQAYRHN
B31: D-domain SEQ ID NO: 265 (designed binder)
chain: MGSWANFKYRLALIKWHLEALGGSEAELASFEIWIADFEESLQWYKGKGNPEVEALRKEAAAIRDELQAYRHN
B32: D-domain SEQ ID NO: 267 (designed binder)
chain: B31 chain with A5T, N6H, H17W, S30G, I33V, W34H, E40A, S41Q, W44M
B33: D-domain SEQ ID NO: 266 (designed binder)
chain: B31 chain with N6T, S30D, I33E, W34Y, D37G, S41G, W44K
B34: D-domain SEQ ID NO: 295 (designed binder)
chain: MGSWFYFKQKLAFIKWYLEALGGSEAELANFEIYIAEFEVMLQQYKGKGNPEVEALRKEAAAIRDELQAYRHN
B35: D-domain SEQ ID NO: 262 (designed binder)
chain: MGSWAGFKYRLAVIKYYLEALGGSEAELAHFEQWIAHFEGMLQDYKGKGNPEVEALRKEAAAIRDELQAYRHN
B36: D-domain SEQ ID NO: 274 (designed binder)
chain: B25 chain with Y5V, Q6D, I13V, G30D, Y34W, T37H, Q40S, E41I
B37: D-domain SEQ ID NO: 290 (designed binder)
chain: B5 chain with N6G, K10R, V13I, D33Q, G37D, I40N, D41E, N44Y
B38: D-domain SEQ ID NO: 271 (designed binder)
chain: B3 chain with I5N, K10H, I13V, H33T, D37E, F40Y, V41E, Q44K
B39: D-domain SEQ ID NO: 269 (designed binder)
chain: B25 chain with Y5T, I13V, N33Q, Y34W, T37E, Q40K, E41T, Q44E
B40: D-domain SEQ ID NO: 273 (designed binder)
chain: MGSWVDFKYHLAVIKFWLEALGGSEAELANFETWIANFEQELQMYKGKGNPEVEALRKEAAAIRDELQAYRHN
B41: D-domain SEQ ID NO: 280 (designed binder)
chain: B3 chain with I5S, I13L, F16W, H33G, D37N, F40T, V41T, Q44K
B42: D-domain SEQ ID NO: 285 (designed binder)
chain: B40 chain with V5S, D6H, V13I, W17Y, N30G, T33I, N37K, Q40D
B43: D-domain SEQ ID NO: 270 (designed binder)
chain: B35 chain with A5N, G6Q, Y16F, Q33T, H37A, G40E, M41Q, D44F
B44: D-domain SEQ ID NO: 272 (designed binder)
chain: B40 chain with D6Q, W17Y, N30H, N37E, Q40V, E41A, M44G
B45: D-domain SEQ ID NO: 276 (designed binder)
chain: B1 chain with L5S, S6H, H9Y, S30K, A33F, L37E, Q41N, Q44M
B46: D-domain SEQ ID NO: 277 (designed binder)
chain: B3 chain with I5Y, E6H, K10H, I13L, F16W, D37E, F40W, V41T
B47: D-domain SEQ ID NO: 278 (designed binder)
chain: B3 chain with I5Q, E6G, K10H, I13L, I35L, D37E, F40H, V41D, Q44T
B48: D-domain SEQ ID NO: 291 (designed binder)
chain: B31 chain with A5H, L13I, W16F, H17M, S30W, I33N, E40D, W44D
B49: D-domain SEQ ID NO: 268 (designed binder)
chain: B5 chain with T5N, N6T, K10H, D33Q, G37E, I40V, D41T, N44S
B50: D-domain SEQ ID NO: 275 (designed binder)
chain: B40 chain with D6E, W17T, N30D, T33E, W34E, N37R, Q40M, E41I, M44Q

Where a chain is given by its changes, count along the chain named.

For this experiment, the target named is T1, BCMA (Homo sapiens (Human), UniProt Q02223 1-54, limits assumed).
T1 sequence: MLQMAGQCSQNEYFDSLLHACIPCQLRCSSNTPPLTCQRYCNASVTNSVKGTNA
Briefly: ELISA, format not described. The arrangement: unit not given here. (ELISA stands for enzyme-linked immunosorbent assay.)
For the molecule B1, the ELISA_avg came out at 6.3.

Regarding B2, the ELISA_avg is 6.45.

The molecule B3 registered an ELISA_avg of 14.9.

For the molecule B4, the ELISA_avg was 7.39.

Molecule B5 had an ELISA_avg of 11.4.

In turn, B6 registered an ELISA_avg of 9.34.

B7 yielded an ELISA_avg of 18.1.

B8 yielded an ELISA_avg of 17.6.

In the case of B9, the ELISA_avg worked out at 18.4.

Molecule B10 displayed an ELISA_avg of 17.

The molecule B11 returned an ELISA_avg of 13.3.

B12 displayed an ELISA_avg of 15.8.

B13: the ELISA_avg amounted to 17.6.

As to B14, the ELISA_avg came to 15.2.

For the molecule B15, the ELISA_avg came to 21.4.

Take B16: the ELISA_avg amounted to 18.4.

Take B17: the ELISA_avg turned out to be 3.84.

Consider B18, for which the ELISA_avg turned out to be 19.9.

Turning to B19, the ELISA_avg is 14.

As for B20, the ELISA_avg was 21.1.

As to B21, the ELISA_avg is 10.3.

Turning to B22, the ELISA_avg was determined as 13.1.

On to B23, for which the ELISA_avg came out at 9.55.

B24 had an ELISA_avg of 8.63.

Take B25: the ELISA_avg was determined as 18.4.

As for B26, the ELISA_avg was found to be 9.71.

For B27, the ELISA_avg came out at 12.

In the case of B28, the ELISA_avg was 4.54.

Molecule B29 came in with an ELISA_avg of 3.71.

B30 registered an ELISA_avg of 22.7.

B31 yielded an ELISA_avg of 14.3.

B32 registered an ELISA_avg of 7.37.

Turning to B33, the ELISA_avg amounted to 15.1.

B34 registered an ELISA_avg of 7.23.

As for B35, the ELISA_avg is 12.7.

B36 registered an ELISA_avg of 10.4.

With B37, the ELISA_avg is 13.9.

B38 showed an ELISA_avg of 13.7.

Consider B39, for which the ELISA_avg worked out at 21.1.

With B40, the ELISA_avg is 13.2.

For the molecule B41, the ELISA_avg turned out to be 11.3.

B42 registered an ELISA_avg of 9.34.

Consider B43, for which the ELISA_avg is 12.8.

B44 yielded an ELISA_avg of 12.7.

The molecule B45 registered an ELISA_avg of 7.93.

For the molecule B46, the ELISA_avg stood at 8.85.

B47 returned an ELISA_avg of 21.2.

As for B48, the ELISA_avg amounted to 13.6.

Molecule B49 displayed an ELISA_avg of 10.6.

B50: the ELISA_avg turned out to be 6.92.

The values above are taken from US20250026849A1 (ARCELLX, published 2025).
